Experimental data taken from publication PMC5964327.

Biological target: T1, CHIP-myc (wild type), Q9UNE7
T1 chain: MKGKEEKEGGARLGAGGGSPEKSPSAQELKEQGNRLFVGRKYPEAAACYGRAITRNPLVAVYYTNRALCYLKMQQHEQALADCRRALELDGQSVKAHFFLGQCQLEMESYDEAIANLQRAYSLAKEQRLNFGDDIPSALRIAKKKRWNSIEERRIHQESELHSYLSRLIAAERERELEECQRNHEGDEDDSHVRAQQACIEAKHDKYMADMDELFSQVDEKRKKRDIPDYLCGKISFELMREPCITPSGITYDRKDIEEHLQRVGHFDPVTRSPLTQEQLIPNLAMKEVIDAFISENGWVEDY
Experiment: co-immunoprecipitation (anti-flag IP, anti-myc immunoblot), quantified
Conditions: chain shown with the change, serum deprived for 24 h, co-transfected with HSP70-V5 and CHIP-myc, read off a plot

response (arbitrary units) (+FSK (30'), parent: est. 100): 5
response (arbitrary units) (-FSK, parent: est. 10): 28
B1: NEK10-flag (wild type), Q6ZWH5-1 T812A (protein)
chain: MPDQDKKVKTTEKSTDKQQEITIRDYSDLKRLRCLLNVQSSKQQLPAINFDSAQNSMTKSEPAIRAGGHRARGQWHESTEAVELENFSINYKNERNFSKHPQRKLFQEIFTALVKNRLISREWVNRAPSIHFLRVLICLRLLMRDPCYQEILHSLGGIENLAQYMEIVANEYLGYGEEQHTVDKLVNMTYIFQKLAAVKDQREWVTTSGAHKTLVNLLGARDTNVLLGSLLALASLAESQECREKISELNIVENLLMILHEYDLLSKRLTAELLRLLCAEPQVKEQVKLYEGIPVLLSLLHSDHLKLLWSIVWILVQVCEDPETSVEIRIWGGIKQLLHILQGDRNFVSDHSSIGSLSSANAAGRIQQLHLSEDLSPREIQENTFSLQAACCAALTELVLNDTNAHQVVQENGVYTIAKLILPNKQKNAAKSNLLQCYAFRALRFLFSMERNRPLFKRLFPTDLFEIFIDIGHYVRDISAYEELVSKLNLLVEDELKQIAENIESINQNKAPLKYIGNYAILDHLGSGAFGCVYKVRKHSGQNLLAMKEVNLHNPAFGKDKKDRDSSVRNIVSELTIIKEQLYHPNIVRYYKTFLENDRLYIVMELIEGAPLGEHFSSLKEKHHHFTEERLWKIFIQLCLALRYLHKEKRIVHRDLTPNNIMLGDKDKVTVTDFGLAKQKQENSKLTSVVGTILYSCPEVLKSEPYGEKADVWAVGCILYQMATLSPPFYSTNMLSLATKIVEAVYEPVPEGIYSEKVTDTISRCLTPDAEARPDIVEVSSMISDVMMKYLDNLSTSQLSLEKKLERERRRAQRYFMEANRNTVTCHHELAVLSHETFEKASLSSSSSGAASLKSELSESADLPPEGFQASYGKDEDRACDEILSDDNFNLENAEKDTYSEVDDELDISDNSSSSSSSPLKESTFNILKRSFSASGGERQSQTRDFTGGTGSRPRPALLPLDLLLKVPPHMLRAHIKEIEAELVTGWQSHSLPAVILRNLKDHGPQMGTFLWQASAGIAVSQRKVRQISDPIQQILIQLHKIIYITQLPPALHHNLKRRVIERFKKSLFSQQSNPCNLKSEIKKLSQGSPEPIEPNFFTADYHLLHRSSGGNSLSPNDPTGLPTSIELEEGITYEQMQTVIEEVLEESGYYNFTSNRYHSYPWGTKNHPTKR
